Test [1] concerns the target T1, CD123 (interleukin-3 receptor alpha, IL3RA) (human, UniProt P26951 19-378).
T1 chain: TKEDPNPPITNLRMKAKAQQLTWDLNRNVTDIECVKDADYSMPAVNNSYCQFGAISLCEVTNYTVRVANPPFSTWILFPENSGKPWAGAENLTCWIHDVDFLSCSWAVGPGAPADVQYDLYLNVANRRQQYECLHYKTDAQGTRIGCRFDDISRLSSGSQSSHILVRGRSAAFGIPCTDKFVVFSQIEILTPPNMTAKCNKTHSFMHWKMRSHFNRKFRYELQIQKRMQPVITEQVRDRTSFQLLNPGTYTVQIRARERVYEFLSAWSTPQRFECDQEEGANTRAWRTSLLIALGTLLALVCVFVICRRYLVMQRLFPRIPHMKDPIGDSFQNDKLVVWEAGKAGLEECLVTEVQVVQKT

The target in test [2] is T1, CD123 (interleukin-3 receptor alpha, …).

B1: 7G3_H1L1_Fab_His (XENP 13761) (antibody, V domains shown)
VH: QVQLVQSGAEVKKPGASVKVSCKASGYTFTDYYMKWVRQAPGQSLEWMGDIIPSNGATFYNQKFQGRVTMTVDRSTSTAYMELSSLRSEDTAVYYCTRSHLLRASWFAYWGQGTLVTVSS
VL: DFVMTQSPDSLAVSLGERATINCKSSQSLLNSGNQKNYLTWYQQKPGQPPKLLIYWASTRESGVPDRFTGSGSGTDFTLTISSLQAEDVAVYYCQNDYSYPYTFGGGTKLEIKR
By Kd is commonly meant the equilibrium constant for the complex coming apart. A lower Kd goes with tighter binding. In test [1], B1 registered a Ka of 4.81e+08 M⁻¹. The molecule further had a Kd in test [2] of 2.08 nM.

For the origin of these results see patent publication US20210147561A1 (published 2021).
